Holding throughout (test): SPR
One assay addresses T1, FcgRIIb (human, UniProt P31994).
T1 chain: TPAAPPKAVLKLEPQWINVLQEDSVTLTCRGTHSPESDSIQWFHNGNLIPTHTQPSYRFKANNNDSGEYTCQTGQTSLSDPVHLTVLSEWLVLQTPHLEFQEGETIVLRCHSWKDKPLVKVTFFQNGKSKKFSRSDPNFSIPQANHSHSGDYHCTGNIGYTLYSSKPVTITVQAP

Another assay concerns the target FcgRIIIa V (human, UniProt P08637).
The target in the next assay is T2, FcgRIIa R (human, UniProt P12318).
T2 chain: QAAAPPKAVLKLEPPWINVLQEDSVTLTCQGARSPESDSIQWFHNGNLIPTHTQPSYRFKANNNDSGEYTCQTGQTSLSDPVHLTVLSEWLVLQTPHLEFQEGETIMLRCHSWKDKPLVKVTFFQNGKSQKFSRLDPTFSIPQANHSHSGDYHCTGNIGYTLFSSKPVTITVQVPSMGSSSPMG

The target of the next assay is FcgRIIIa F (human, UniProt P08637).
Chain of FcgRIIIa F (P08637 17-208): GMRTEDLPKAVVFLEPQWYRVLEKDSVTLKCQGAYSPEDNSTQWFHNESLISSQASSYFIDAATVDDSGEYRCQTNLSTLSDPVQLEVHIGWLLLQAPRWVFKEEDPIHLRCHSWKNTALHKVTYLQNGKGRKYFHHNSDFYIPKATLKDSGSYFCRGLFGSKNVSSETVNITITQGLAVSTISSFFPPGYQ
A further assay deals with T3, FcgRIIa H (human, UniProt P12318).
T3 chain: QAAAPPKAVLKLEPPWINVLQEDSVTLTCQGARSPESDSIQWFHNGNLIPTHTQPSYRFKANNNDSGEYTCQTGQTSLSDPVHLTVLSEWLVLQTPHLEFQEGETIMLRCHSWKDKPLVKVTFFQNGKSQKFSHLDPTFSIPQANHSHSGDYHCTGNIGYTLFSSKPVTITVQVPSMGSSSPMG

In another assay the target is T4, FcgRIa (human, UniProt P12314).
T4 chain: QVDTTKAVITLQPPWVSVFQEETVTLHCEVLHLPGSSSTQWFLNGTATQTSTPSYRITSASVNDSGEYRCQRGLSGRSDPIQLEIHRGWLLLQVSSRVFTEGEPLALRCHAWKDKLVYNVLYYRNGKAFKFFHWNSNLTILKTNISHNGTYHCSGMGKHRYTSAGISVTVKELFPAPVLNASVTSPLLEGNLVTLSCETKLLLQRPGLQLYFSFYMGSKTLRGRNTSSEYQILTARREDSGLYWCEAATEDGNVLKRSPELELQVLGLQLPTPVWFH

Our source for the Kd values is patent US10766960 (dated 2020).

Chain of FcgRIIIa V (P08637 17-208 F176V): as the sequence (P08637 17-208) above, with F160V counted along it

B1: H240-Kn201/H240-Hl214/L73-k0 (antibody)
chain 1: QDQLVQSGAEVKKPGASVKVSCKASGFNIKDTYIQWVRQAPGQGLEWMGRIDPLRKQTKYREKFEGRVTITADTSTNTAYMELSSLRSEDTAVYYCVRSGREFDYWGQGTLVTVSSASTKGPSVFPLAPSSKSTSGGTAALGCLVKDYFPEPVTVSWNSGALTSGVHTFPAVLQSSGLYSLSSVVTVPSSSLGTQTYICNVNHKPSNTKVDKKVEPKSCDKTHTCPPCPAPEFQWGPMVFLFPPKPKDTLMISRTPEVTCVVVDVSDEEPEVKFNWYVDGVEVHNAKTKPREEQYNATYRVVSVLTVLHQDWLNGKEYKCKVSNKALPAPIEKTISKAKGQPREPQVCTLPPSRDELTKNQVSLWCLVKGFYPSDIAVEWESNGQPENNYKTTPPVLDSDGSFFLYSKLTVDKSRWQQGNVFSCSVMHEALHNHYTQKSLSLSP
chain 2: QDQLVQSGAEVKKPGASVKVSCKASGFNIKDTYIQWVRQAPGQGLEWMGRIDPLRKQTKYREKFEGRVTITADTSTNTAYMELSSLRSEDTAVYYCVRSGREFDYWGQGTLVTVSSASTKGPSVFPLAPSSKSTSGGTAALGCLVKDYFPEPVTVSWNSGALTSGVHTFPAVLQSSGLYSLSSVVTVPSSSLGTQTYICNVNHKPSNTKVDKKVEPKSCDKTHTCPPCPAPELLGGPSVFLFPPKPKDTLMISRTPEVTCVVVDVSHEEPEVKFNWYVDGVEVHNAKTKPREEQYNSTYRVVSVLTVLHQDWLNGKEYKCKVSNDALPFPIEETISKAKGQPREPQVYTLPPSRCELTKNQVSLSCAVKGFYPSDIAVEWESNGQPENNYKTTPPVLDSDGSFFLVSKLTVDKSRWQQGNVFSCSVMHEALHNHYTQKSLSLSP
chain 3: DIQMTQSPSSLSASVGDRVTITCRASQDIHKYIAWYQQKPGQAPRLLIQYTSTLQPGVPSRFSGSGSGTDYTFTISSLQPEDIATYYCLQYEQLRTFGGGTKVEIKRTVAAPSVFIFPPSDEQLKSGTASVVCLLNNFYPREAKVQWKVDNALQSGNSQESVTEQDSKDSTYSLSSTLTLSKADYEKHKVYACEVTHQGLSSPVTKSFNRGEC
Turning to B1, the Kd in the assay with FcgRIIb was 3700 nM; with FcgRIIIa V it was 1.4 nM; with FcgRIIa R it was 560 nM; in the assay with FcgRIIIa F, 3.9 nM; with FcgRIIa H, 150 nM; with FcgRIa it was 0.091 nM.

B2: H240-Kn230/H240-Hl068/L73-k0 (antibody)
chain 1: QDQLVQSGAEVKKPGASVKVSCKASGFNIKDTYIQWVRQAPGQGLEWMGRIDPLRKQTKYREKFEGRVTITADTSTNTAYMELSSLRSEDTAVYYCVRSGREFDYWGQGTLVTVSSASTKGPSVFPLAPSSKSTSGGTAALGCLVKDYFPEPVTVSWNSGALTSGVHTFPAVLQSSGLYSLSSVVTVPSSSLGTQTYICNVNHKPSNTKVDKKVEPKSCDKTHTCPPCPAPEVYWGPIVFLFPPKPKDTLMISRTPEVTCVVVDVSDEDPEVKFNWYVDGVEVHNAKTKPREEQYNATYRVVSVLTVLHQDWLNGKEYKCKVSNKDLPAPIEKTISKAKGQPREPQVCTLPPSRDELTKNQVSLWCLVKGFYPSDIAVEWESNGQPENNYKTTPPVLDSDGSFFLYSKLTVDKSRWQQGNVFSCSVMHEALHNHYTQKSLSLSP
chain 2: QDQLVQSGAEVKKPGASVKVSCKASGFNIKDTYIQWVRQAPGQGLEWMGRIDPLRKQTKYREKFEGRVTITADTSTNTAYMELSSLRSEDTAVYYCVRSGREFDYWGQGTLVTVSSASTKGPSVFPLAPSSKSTSGGTAALGCLVKDYFPEPVTVSWNSGALTSGVHTFPAVLQSSGLYSLSSVVTVPSSSLGTQTYICNVNHKPSNTKVDKKVEPKSCDKTHTCPPCPAPELLGGPSVFLFPPKPKDTLMISRTPEVTCVVVDVSHEEPEVKFNWYVDGVEVHNAKTKPREEQYNSTYRVVSVLTVLHQDWLNGKEYKCKVSNDALPKPIEETISKAKGQPREPQVYTLPPSRCELTKNQVSLSCAVKGFYPSDIAVEWESNGQPENNYKTTPPVLDSDGSFFLVSKLTVDKSRWQQGNVFSCSVMHEALHNHYTQKSLSLSP
chain 3: DIQMTQSPSSLSASVGDRVTITCRASQDIHKYIAWYQQKPGQAPRLLIQYTSTLQPGVPSRFSGSGSGTDYTFTISSLQPEDIATYYCLQYEQLRTFGGGTKVEIKRTVAAPSVFIFPPSDEQLKSGTASVVCLLNNFYPREAKVQWKVDNALQSGNSQESVTEQDSKDSTYSLSSTLTLSKADYEKHKVYACEVTHQGLSSPVTKSFNRGEC
In the case of B2, the Kd with FcgRIIb was found to be 150 nM; with FcgRIIIa V, 0.93 nM; with FcgRIIa R, 9.6 nM; with FcgRIIIa F, 2.6 nM; with FcgRIIa H, 22 nM; with FcgRIa, 0.18 nM.

B3: H240-Kn201/H240-Hl210/L73-k0 (antibody)
chain 1: QDQLVQSGAEVKKPGASVKVSCKASGFNIKDTYIQWVRQAPGQGLEWMGRIDPLRKQTKYREKFEGRVTITADTSTNTAYMELSSLRSEDTAVYYCVRSGREFDYWGQGTLVTVSSASTKGPSVFPLAPSSKSTSGGTAALGCLVKDYFPEPVTVSWNSGALTSGVHTFPAVLQSSGLYSLSSVVTVPSSSLGTQTYICNVNHKPSNTKVDKKVEPKSCDKTHTCPPCPAPEFQWGPMVFLFPPKPKDTLMISRTPEVTCVVVDVSDEEPEVKFNWYVDGVEVHNAKTKPREEQYNATYRVVSVLTVLHQDWLNGKEYKCKVSNKALPAPIEKTISKAKGQPREPQVCTLPPSRDELTKNQVSLWCLVKGFYPSDIAVEWESNGQPENNYKTTPPVLDSDGSFFLYSKLTVDKSRWQQGNVFSCSVMHEALHNHYTQKSLSLSP
chain 2: QDQLVQSGAEVKKPGASVKVSCKASGFNIKDTYIQWVRQAPGQGLEWMGRIDPLRKQTKYREKFEGRVTITADTSTNTAYMELSSLRSEDTAVYYCVRSGREFDYWGQGTLVTVSSASTKGPSVFPLAPSSKSTSGGTAALGCLVKDYFPEPVTVSWNSGALTSGVHTFPAVLQSSGLYSLSSVVTVPSSSLGTQTYICNVNHKPSNTKVDKKVEPKSCDKTHTCPPCPAPELLGGPSVFLFPPKPKDTLMISRTPEVTCVVVDVSHEEPEVKFNWYVDGVEVHNAKTKPREEQYNSTYRVVSVLTVLHQDWLNGKEYKCKVSNDALPAPIEETISKAKGQPREPQVYTLPPSRCELTKNQVSLSCAVKGFYPSDIAVEWESNGQPENNYKTTPPVLDSDGSFFLVSKLTVDKSRWQQGNVFSCSVMHEALHNHYTQKSLSLSP
chain 3: DIQMTQSPSSLSASVGDRVTITCRASQDIHKYIAWYQQKPGQAPRLLIQYTSTLQPGVPSRFSGSGSGTDYTFTISSLQPEDIATYYCLQYEQLRTFGGGTKVEIKRTVAAPSVFIFPPSDEQLKSGTASVVCLLNNFYPREAKVQWKVDNALQSGNSQESVTEQDSKDSTYSLSSTLTLSKADYEKHKVYACEVTHQGLSSPVTKSFNRGEC
With B3, the Kd turned out to be 7200 nM with FcgRIIb; 0.49 nM in the assay with FcgRIIIa V; 430 nM with FcgRIIa R; 3.2 nM with FcgRIIIa F; 110 nM in the assay with FcgRIIa H; 0.069 nM in the assay with FcgRIa.

B4: H240-Kn226/H240-Hl210/L73-k0 (antibody)
chain 1: QDQLVQSGAEVKKPGASVKVSCKASGFNIKDTYIQWVRQAPGQGLEWMGRIDPLRKQTKYREKFEGRVTITADTSTNTAYMELSSLRSEDTAVYYCVRSGREFDYWGQGTLVTVSSASTKGPSVFPLAPSSKSTSGGTAALGCLVKDYFPEPVTVSWNSGALTSGVHTFPAVLQSSGLYSLSSVVTVPSSSLGTQTYICNVNHKPSNTKVDKKVEPKSCDKTHTCPPCPAPEFQWGPIVFLFPPKPKDTLMISRTPEVTCVVVDVSDEEPEVKFNWYVDGVEVHNAKTKPREEQYNATYRVVSVLTVLHQDWLNGKEYKCKVSNKALPAPIEKTISKAKGQPREPQVCTLPPSRDELTKNQVSLWCLVKGFYPSDIAVEWESNGQPENNYKTTPPVLDSDGSFFLYSKLTVDKSRWQQGNVFSCSVMHEALHNHYTQKSLSLSP
chain 2: QDQLVQSGAEVKKPGASVKVSCKASGFNIKDTYIQWVRQAPGQGLEWMGRIDPLRKQTKYREKFEGRVTITADTSTNTAYMELSSLRSEDTAVYYCVRSGREFDYWGQGTLVTVSSASTKGPSVFPLAPSSKSTSGGTAALGCLVKDYFPEPVTVSWNSGALTSGVHTFPAVLQSSGLYSLSSVVTVPSSSLGTQTYICNVNHKPSNTKVDKKVEPKSCDKTHTCPPCPAPELLGGPSVFLFPPKPKDTLMISRTPEVTCVVVDVSHEEPEVKFNWYVDGVEVHNAKTKPREEQYNSTYRVVSVLTVLHQDWLNGKEYKCKVSNDALPAPIEETISKAKGQPREPQVYTLPPSRCELTKNQVSLSCAVKGFYPSDIAVEWESNGQPENNYKTTPPVLDSDGSFFLVSKLTVDKSRWQQGNVFSCSVMHEALHNHYTQKSLSLSP
chain 3: DIQMTQSPSSLSASVGDRVTITCRASQDIHKYIAWYQQKPGQAPRLLIQYTSTLQPGVPSRFSGSGSGTDYTFTISSLQPEDIATYYCLQYEQLRTFGGGTKVEIKRTVAAPSVFIFPPSDEQLKSGTASVVCLLNNFYPREAKVQWKVDNALQSGNSQESVTEQDSKDSTYSLSSTLTLSKADYEKHKVYACEVTHQGLSSPVTKSFNRGEC
With B4, the Kd came to 3100 nM in the assay with FcgRIIb; 0.85 nM with FcgRIIIa V; 310 nM with FcgRIIa R; 3.7 nM with FcgRIIIa F; 120 nM with FcgRIIa H; 0.11 nM with FcgRIa.
